Assay results taken from the supplement of paper PMC10724198.
± gives the standard deviation of the averaged measurements.

System: Saccharomyces cerevisiae
Test: protein stability index of tFT-peptide fusion (C-terminal peptide) (PSI (0-1 scale)); higher = more stable (slower turnover)
Conditions: temperature: 30 C
Method: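 MPS profiling in S. cerevisiae of the yeast C-terminome library: the last 12 aa of each annotated ORF are fused to the C-terminus of a sfGFP-mCherry timer, after a GGGS linker. Cells are FACS-sorted into 8 mCherry/sfGFP bins and deep-sequenced. PSI runs from 0 (unstable) to 1 (stable); wild type and das1Δ backgrounds, two technical replicates each.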

[1] = genetic background: das1 deletion

Sequence	protein stability index [1]	protein stability index (genetic background: wild type)
LCLLESLDCLAK [PMT7 C-terminal 12 aa]	0.6692 ± 0.0024	0.68 ± 0.017
FQSEYNISDILS [CEP3 C-terminal 12 aa]	0.703 ± 0.0092	0.745 ± 0.023
FVDYKTHPVGAN [RGI1 C-terminal 12 aa]	0.709 ± 0.01	0.7141 ± 0.0028
RKFVFNPPKPRK [CYT1 C-terminal 12 aa]	0.691 ± 0.025	0.694 ± 0.056
PRERLLSEYCSS [MET8 C-terminal 12 aa]	0.71885 ± 0.00032	0.7199 ± 0.0033
RLQQVRKNPYPF [OPI7 C-terminal 12 aa]	0.7357 ± 0.0072	0.712 ± 0.032
MKQLEKAGVRFE [FMP33 C-terminal 12 aa]	0.6871 ± 0.0014	0.686 ± 0.014
KIPKTYSELSCL [DUN1 C-terminal 12 aa]	0.693 ± 0.042	0.669 ± 0.037
AARPCLEGSVAP [YOR050C C-terminal 12 aa]	0.686 ± 0.01	0.6795 ± 0.0067
SSSSLYTESPIR [IGO1 C-terminal 12 aa]	0.7011 ± 0.0054	0.717 ± 0.066
IQQTNSFLREII [YDL211C C-terminal 12 aa]	0.692 ± 0.0098	0.7056 ± 0.0041
IKKYNITSPFLD [NSE4 C-terminal 12 aa]	0.696 ± 0.022	0.686 ± 0.004
CLSDIAKVLRNQ [PBP4 C-terminal 12 aa]	0.661 ± 0.0092	0.577 ± 0.015
DEDEDDSTTKEP [GLC8 C-terminal 12 aa]	0.679 ± 0.011	0.7 ± 0.026
VRKNVTWNNLWE [CTF18 C-terminal 12 aa]	0.705 ± 0.013	0.682 ± 0.042
IYIQTPINDFKS [SLM1 C-terminal 12 aa]	0.705 ± 0.031	0.678 ± 0.013
FTLVGYDKEFSD [ADH6 C-terminal 12 aa]	0.6911 ± 0.0014	0.70114 ± 0.00043
NVLTVVNPDEAD [SLG1 C-terminal 12 aa]	0.692 ± 0.027	0.6841 ± 0.0015
FRHNRSNKKSGC [GEX2 C-terminal 12 aa]	0.707 ± 0.032	0.668 ± 0.069
CGVSWKSGVVKL [PXP2 C-terminal 12 aa]	0.7093 ± 0.0022	0.716 ± 0.031
YKDDEDDDIEMT [PDS5 C-terminal 12 aa]	0.679 ± 0.011	0.685 ± 0.051

Sequence	protein stability index [1]	protein stability index (genetic background: wild type)
TLTQEEINELST [LTE1 C-terminal 12 aa]	0.69603 ± 0.00028	0.689 ± 0.041
GAGVMAAAAMLL [TIR2 C-terminal 12 aa]	0.714 ± 0.029	0.7089 ± 0.0066
DIRAHLAEYYSF [PAU7 C-terminal 12 aa]	0.728 ± 0.026	0.687 ± 0.011
LVYENVRVPRYL [IFM1 C-terminal 12 aa]	0.697 ± 0.015	0.6639 ± 0.0064
VHDQTNLELYYL [HUB1 C-terminal 12 aa]	0.708 ± 0.0075	0.6895 ± 0.0058
GWPLKDGNKKRK [OTO1 C-terminal 12 aa]	0.682 ± 0.025	0.706 ± 0.065
YAGIPENKIIGV [ARG56 C-terminal 12 aa]	0.703 ± 0.048	0.702 ± 0.021
FASPTLSFFFPI [YGL149W C-terminal 12 aa]	0.724 ± 0.013	0.7061 ± 0.002
QNEICQYDNTSP [YGR109W-B C-terminal 12 aa]	0.7173 ± 0.0057	0.694 ± 0.012
GSSGRLTASPVY [PEX2 C-terminal 12 aa]	0.696 ± 0.023	0.684 ± 0.022
VMQVQCLFFFIL [YJL156W-A C-terminal 12 aa]	0.556 ± 0.019	0.284 ± 0.0037
TKWHDKFGKLKN [SHE2 C-terminal 12 aa]	0.693 ± 0.024	0.6795 ± 0.0042
TVQSKLGDHGFN [PEP7 C-terminal 12 aa]	0.679 ± 0.015	0.707 ± 0.048
KKYKFKLKFIKN [RNY1 C-terminal 12 aa]	0.7118 ± 0.006	0.642 ± 0.02
EKLILAKKDQPN [IST3 C-terminal 12 aa]	0.6926 ± 0.0055	0.709 ± 0.046
LQPMEAFKYDRS [BIO2 C-terminal 12 aa]	0.71 ± 0.0075	0.731 ± 0.046
LKKKLYTLEQKK [KEL2 C-terminal 12 aa]	0.694 ± 0.02	0.6241 ± 0.0031
PPPQESTEKEEK [MRP13 C-terminal 12 aa]	0.709 ± 0.031	0.668 ± 0.0098
NNGSSNNNTQNT [SNF5 C-terminal 12 aa]	0.67 ± 0.014	0.673 ± 0.022
EKKSKKEKKEKK [NOP58 C-terminal 12 aa]	0.747 ± 0.07	0.717 ± 0.04
